# Test results taken from US20040253646A1, “Pre-mrna splicing screening assay” (priority 2001, published 2004).
# “Also recorded” adds a separate entry of the source.
# Assays:
# [1] = biological target: T1, PLRG1 (Homo sapiens, UniProt O43660); experiment: GST pull-down protein binding assay, CDC5L mutants with GST-PLRG1; settings: in vitro translated (FIG. 6A) or bacterially expressed His-tagged (FIG. 6B, 6C) proteins
# T1 construct: using full-length GST-PLRG1 in pull-down experiments with each of the respective CDC5L truncation mutants; made in house; host or cells: E. coli BL21(DE3), vector pGEX-4T1
# T1 sequence (O43660 257-396 limits assumed): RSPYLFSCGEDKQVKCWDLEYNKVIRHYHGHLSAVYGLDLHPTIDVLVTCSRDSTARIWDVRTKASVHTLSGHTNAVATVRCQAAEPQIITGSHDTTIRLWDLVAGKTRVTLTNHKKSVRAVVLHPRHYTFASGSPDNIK
# Source text: (§1) The in vitro transcription and translation experiments were done with the T7 or SP6 RNA polymerase transcription/translation systems that used rabbit reticulocyte lysate (TNT systems, Promega) and L-[^35S] methionine (Amersham, AG1094) to produce [^35S] labelled proteins according to the manufacturer's recommendations. Aliquots of these reactions were used for protein-protein interaction assays as described below.
# (§2) About 0.2 nmole of the appropriate GST-fusion recombinant protein was mixed with an equimolar amount of hexahistidine tagged bacterially expressed protein or 8-10 μl of the in vitro translation reaction above and incubated in binding buffer (250 mM NaCl, 50 mM HEPES pH 7:9, 2% BSA) at room temperature for 15 minutes. The binding reaction was then added to 25 μl of glutathione sepharose beads or antibody bound protein-G sepharose and mixed at 4° C. for 1-2 hrs. The beads were washed 3-4 times in 1 ml of PBS/0.1% Triton X-100 and resuspended in 25 μl 2×SDS PAGE loading dye before heating at 70° C. for 10 minutes or 95° C. for 5 minutes. Bound proteins were separated on a 10% or 12% SDS PAGE gel after which the gel was fixed in 50% methanol/10% acetic acid for 30 minutes. The fixed gel was then soaked in a fluorographic reagent (Amplify, Amersham) for 30 minutes before drying. Protein bands were detected by autoradiography at −80° C. after 4-16 hrs. For antibody probing, the gels containing proteins from the antibody beads were treated as described above in the SDS-PAGE and Western blotting section.
# (§3) Point mutations generating stop codons were inserted into the cDNAs at approximately 100 amino acids intervals by PCR using the QuikChange site directed mutagenesis kit (Stratagene) according to the manufacturer's instructions. The cDNAs were sequenced to confirm the presence of the appropriate mutations. Regions of the cDNAs involved in binding and overlapping regions were subcloned into the vectors pGEX-4T1 (Amersham-Pharmacia) or pET-30a (Novagen) for use in E. coli expression and protein-protein interaction assays.
# [2] = biological target: T2, PLRG1 (Homo sapiens, UniProt O43660); experiment: as above; settings: about 0.2 nmole GST-PLRG1, FIG. 4
# T2 construct: using full-length GST-PLRG1 in pull-down experiments with each of the respective CDC5L truncation mutants; made in house; host or cells: E. coli BL21(DE3), vector pGEX-4T1
# T2 sequence (O43660 1-514): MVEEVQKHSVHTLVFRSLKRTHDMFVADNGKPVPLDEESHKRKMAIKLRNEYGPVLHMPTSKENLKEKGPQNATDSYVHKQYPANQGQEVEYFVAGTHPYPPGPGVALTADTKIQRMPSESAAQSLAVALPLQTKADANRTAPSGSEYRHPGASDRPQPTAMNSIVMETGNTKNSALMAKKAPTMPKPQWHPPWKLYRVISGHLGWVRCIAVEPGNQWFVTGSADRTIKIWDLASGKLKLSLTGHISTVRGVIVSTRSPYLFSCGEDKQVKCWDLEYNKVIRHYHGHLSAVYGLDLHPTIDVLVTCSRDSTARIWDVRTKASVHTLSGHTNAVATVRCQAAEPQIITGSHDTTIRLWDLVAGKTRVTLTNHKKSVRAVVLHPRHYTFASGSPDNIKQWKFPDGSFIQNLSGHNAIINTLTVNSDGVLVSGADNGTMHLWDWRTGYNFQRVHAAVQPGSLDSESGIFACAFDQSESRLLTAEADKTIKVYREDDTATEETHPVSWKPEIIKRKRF
# Source text: as §1, §2, §3
molecule,measurement,setting,value
"ΔCDC5Lg: CDC5L carboxyl terminal amino acids 706-800, mutant protein from region g (protein, UniProt Q99459 706-800, looked up, fragment, His6 tag, CDC5L carboxyl terminal amino acids 706-800, mutant protein from region g) EAKRAAKMEKKMKILLGGYQSRAMGLMKQLNDLWDQIEQAHLELRTFEELKKHEDSAIPRRLECLKEDVQRQQEREKELQHRYADLLLEKETLKS",pull-down of CDC5L mutants by GST-ΔPLRG1f (amino acids 257-396),[1],will interact; also recorded: will pull-down
same,pull-down of in vitro translated CDC5L mutants by full-length GST-PLRG1,[2],pulled down less efficiently
